Measured values: patent US20230399407A1 (KOREA UNIVERSITY RESEARCH AND BUSINESS FOUNDATION, published 2023)
Positions count from the first letter of the chain named.

B1: scFv antibody variant JS116 (scFv, V domains shown)
VH: QVQLQESGGGLVQPGGSLRLACAGSGFTFSNFAMAWVRLAPGKGLEWVSGISDDGTITDYADSVKGRFTISRDNSKNTLYLQMNSLRAEDTAVYYCVRVPPPAPVQGPDYWGQGTTVTVSS
VL: DVVMTQSPSAMSASVGDRVTITCRASQGISNYLAWFQQKPGKVPKRLIYAASSLQGGVPSRFRGRGSGTDFTLSISCLQSEDFATYYCQQYHSYPLTFGGGTKLSVLG
notes: No full VH/VL is printed
B2: scFv antibody variant JS144 (scFv, V domains shown)
VH: B1 VH with P101S
VL: B1 VL
B3: scFv antibody variant JS48 (scFv, V domains shown)
VH: B1 VH with A21T, R98K, P101S, V105M, T116L
VL: ETTLTQSPSSLSASVGDRVTITCRASQSISTYLNWYQQKPGKAPKSLIYGASNLQSGVSSQFSGRGPGTDFTLTISSLQPEDFATYYCQQGNSVPLTFGGGTKVDIKR
B4: scFv antibody variant JS9 (scFv, V domains shown)
VH: EVQLVGSGGGVVQPGRSLRLSCAASGFNFDDHAMHWVRQAPGKGLEWVSSISGSGGDTYYADSVKGRFTIARDNSKNTLYLQMNSLRAEDTAVYYCATEARGLAHWGQGTLVTVSS
VL: SSELTQDPAVSVALGQTASITCSGHKLGERYACWYQQKPGQSPVLVIYQDTKRPSGIPERFSGSNTGNTATLTITGTQAMDEADYYCQAWDSSTVVFGGGTKLTVLG
B5: scFv antibody variant JS30 (scFv, V domains shown)
VH: EVQLVESGPGQVKPSETLSLTCSVSGGSISSRDWWGWVRQPPGEGLEWIGEIYHSGTTNYNPSLKSRVTMSMDTSKNQLSLKLTGVTAVDTAVYYCVTYSASDAAFDSWGQGTLVTVSS
VL: B3 VL with V19I, Y32C, N53I, R65S, S76G, D82G
B6: scFv antibody variant JS41 (scFv, V domains shown)
VH: B5 VH with S102Y
VL: B3 VL with V19I, N34S, S63R, R65S

target: T1, Fc alpha receptor-ECD-streptavidin-Alexa488 (human, UniProt P24071 22-227, labeled with Alexa488 fluorescent molecules (sites not given)); assay: flow cytometry, legend of FIG. 8
T1 construct: Tetrameric antigen made in Expi293F cells and labelled with Alexa488 for flow cytometry; Any linker or purification tag (Ni-NTA resin was used) is not described; also called Fc alpha receptor-ECD-streptavidin-Alexa488 probe; Fc alpha receptor-ECD-streptavidin-Alexa488 antigen; not shown: streptavidin tag
T1 sequence (P24071 22-227 limits assumed): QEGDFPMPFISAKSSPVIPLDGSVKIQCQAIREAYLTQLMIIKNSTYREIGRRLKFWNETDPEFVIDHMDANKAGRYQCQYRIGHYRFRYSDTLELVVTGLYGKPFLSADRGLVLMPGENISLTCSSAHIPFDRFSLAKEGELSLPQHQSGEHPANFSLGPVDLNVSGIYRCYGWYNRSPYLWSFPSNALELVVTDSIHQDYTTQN

Binding result, binds:
B1

target: T1, Fc alpha …; assay: flow cytometry, scFv displayed on E. coli spheroplasts, 50 nM Alexa488-labelled antigen

Binding result, binds:
B2
B3
B4
B5
B6
